From article doi:10.1101/2025.03.18.643923, “Widely used CaMKII regulatory segment mutations cause tight actinin binding and dendritic spine enlargement in unstimulated neurons” (bioRxiv, 2025) come the findings set out here.

First the molecules themselves.
B1: CaMKIIα 290-309 peptide WT (peptide, UniProt P11275 290-309, looked up)
peptide: LKKFNARRKLKGAILTTMLA
notes: CaMKIIα regulatory segment, residues 290-309; Probably a synthetic peptide; also called WT CaMKIIα 290-309; N-terminally shifted regulatory segment peptide (WT)
B2: CaMKIIα 290-309 peptide AA (T305A/T306A) (peptide, UniProt P11275 290-309, looked up)
peptide: LKKFNARRKLKGAILAAMLA
notes: CaMKIIα regulatory segment, residues 290-309; Probably a synthetic peptide; also called AA CaMKIIα 290-309; N-terminally shifted regulatory segment peptide (AA)
B3: CaMKIIα 294-315 peptide T305A/T306A (peptide, UniProt P11275 294-315, looked up)
peptide: NARRKLKGAILAAMLATRNFSG
notes: Probably a synthetic peptide; also called AA isolated regulatory segment
B4: CaMKIIα 294-315 peptide T305A (peptide, UniProt P11275 294-315, looked up)
peptide: NARRKLKGAILATMLATRNFSG
notes: Probably a synthetic peptide; also called T305A regulatory segment
B5: CaMKIIα 294-315 peptide T306A (peptide, UniProt P11275 294-315, looked up)
peptide: NARRKLKGAILTAMLATRNFSG
notes: Probably a synthetic peptide; also called T306A regulatory segment

In this assay the target is T1, Human α-actinin-2 EF3-4 (positions 827-894) (human, UniProt P35609 827-894).
T1 construct: α-actinin-2, human, third and fourth EF hands, positions 827-894; also called α-actinin-2 EF hands 3-4; source: E. coli Rosetta pLysS, purified (Ni-NTA, Glutathione Sepharose, Tev cleavage, Superdex 75); not shown: His, N-terminal, cleaved; GST, N-terminal, cleaved
T1 sequence (P35609 827-894): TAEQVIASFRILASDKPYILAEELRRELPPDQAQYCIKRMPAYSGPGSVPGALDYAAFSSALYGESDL
In words: ITC; MicroCal PEAQ, 25 °C, 25 mM HEPES pH 7.5, 150 mM NaCl; syringe 500 μM CaMKIIα peptide, cell 50 μM EF3-4; single site binding model. To be noted: both partners purified. (In general: ITC needs no label: the signal is the heat of the interaction.)
In general, Kd refers to the concentration at which binding is half-saturated. The low end stands for tighter binding, the high end for weaker binding. Molecule B1 displayed a Kd of 3.46 ± 0.08 µM.
As for B2, the affinity, expressed as Kd, was 0.146 ± 0.012 µM.
Turning to B3, the Kd was found to be 14.7 ± 1.2 µM.
As for B4, the figure is 19.4 ± 0.7 µM.
As for B5, the figure is 19.8 ± 1.9 µM.
